The target of the test is T1, cAMP-dependent protein kinase (PKA) type I regulatory subunit isoform α, full-length wild type (UniProt P00514 1-380).
T1 construct: PKA type I regulatory subunit α (RIα), full length, UniProtKB P00514 used for the HDXMS peptide search; Cloned in pRSETA; for FP loaded with 8-fl-cAMP or 2'-fl-cAMP; also called RIα; WT RIα
Kind of test: fluorescence polarisation; about 1 uM RIα preloaded with 8-fl-cAMP or 2'-fl-cAMP (excess ligand removed by SEC), about 2 uM PDE8 added; polarisation followed over 120 min; 96-well plates; excess cAMP (25 or 100 uM) added at 20 min in some runs. The note with it: both partners purified.

Experimental findings from publication PMC10552185, “Impaired cAMP processivity by phosphodiesterase-protein kinase A complexes in acrodysostosis” (Frontiers in Molecular Biosciences, 2023) are described below.

Residue numbers refer to the chain shown, from its start. Names and notes keep the numbering of the source.

T1 sequence (P00514 whole entry, canonical isoform): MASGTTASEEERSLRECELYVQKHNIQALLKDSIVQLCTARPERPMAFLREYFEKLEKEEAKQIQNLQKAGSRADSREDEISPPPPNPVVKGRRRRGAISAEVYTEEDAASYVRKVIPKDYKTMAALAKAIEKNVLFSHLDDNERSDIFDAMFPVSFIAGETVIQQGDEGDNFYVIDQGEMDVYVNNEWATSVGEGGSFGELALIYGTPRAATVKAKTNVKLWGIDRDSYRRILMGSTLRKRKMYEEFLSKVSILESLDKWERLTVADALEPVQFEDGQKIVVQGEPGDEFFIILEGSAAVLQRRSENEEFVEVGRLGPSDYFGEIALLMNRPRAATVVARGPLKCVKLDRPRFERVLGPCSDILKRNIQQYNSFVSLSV

B1: catalytic domain of wild-type PDE8A1 (472-829) (domain or fragment, UniProt O60658-1 472-829, looked up)
chain: SSNIITPISLDDVPPRIARAMENEEYWDFDIFELEAATHNRPLIYLGLKMFARFGICEFLHCSESTLRSWLQIIEANYHSSNPYHNSTHSADVLHATAYFLSKERIKETLDPIDEVAALIAATIHDVDHPGRTNSFLCNAGSELAILYNDTAVLESHHAALAFQLTTGDDKCNIFKNMERNDYRTLRQGIIDMVLATEMTKHFEHVNKFVNSINKPLATLEENGETDKNQEVINTMLRTPENRTLIKRMLIKCADVSNPCRPLQYCIEWAARISEEYFSQTDEEKQQGLPVVMPVFDRNTCSIPKSQISFIDYFITDMFDAWDAFVDLPDLMQHLDNNFKYWKGLDEMKLRNLRPPPE
notes: PDE8A catalytic domain, residues 472-829 of PDE8A1, UniProtKB O60658 used for the HDXMS peptide search; Cloned in pET-Duet1; also called PDE8 WT; WT PDE8
With B1, the binding result is recorded as “binds”.

B2: PDE8A catalytic domain (472-829) T690P (domain or fragment, UniProt O60658 472-829, looked up)
chain: B1 chain with T219P
notes: PDE8A catalytic domain, residues 472-829 of PDE8A1, UniProtKB O60658, with T690P (made as the equivalent of the acrodysostosis mutation PDE4D T594P); Cloned in pET-Duet1; also called PDE8 T690P; PDE8c T690P
Regarding B2, the binding result is given as “binds”.
